One test deals with HNP-(R14,24orn) (human). In words: AUC.
The target in test [1] is human neutrophil peptide-1 (HNP-1) (human). In words: AUC.

HNP-(R14,24orn) (peptide) showed a population of oligomer in the test with HNP-(R14,24orn) (human) of 8%.

As for human neutrophil peptide-1 (HNP-1), the population of oligomer in test [1] was determined as 8%.

The record behind these values is article PMC6291843.
